In patent US12168677B2, “Proteins for the treatment of epithelial barrier function disorders” (Genevive, Inc., priority 2017, dated 2024):

How the values were obtained:
[1] = test system: DSS treated mice; assay: DSS model: colon weight to length ratio; format: in vivo, C57BL/6 mice; details: 2.5% DSS 6 days
Procedure: Eight-week old C57BL/6 mice were housed 5 animals were cage and given food and water ad libitum for 7 days. Following the 7-day acclimation period, treatments were initiated concurrently with addition of 2.5% DSS to the drinking water. […] The mice were treated with 2.5% dextran sodium sulfate (DSS) in their drinking water for 6 days. Treatments were continued with SG-15 or […]-GLP2 twice a day (b.i.d.) in the morning and evening (every 8 and 16 hr) with i.p. injections at 50 nmoles/kg. Fresh 2.5% DSS drinking water was prepared every 2 days. Colon length and weight were measured in mice included in the DSS model study described in Example 1E. […] Accordingly, the ratio of tissue weight to length can be used as a readout of DSS induced tissue damage. SG-15 administration to DSS treated mice (Example 1E) reduced the colon weight to length ratio elicited by DSS (DSS=3.9 mg/mm, DSS+SG-15=3.5 mg/mm; p=0.13). […] However, no difference was observed between treated with SG-15 as compared to treatment with […]GLP2. The graph in FIG. 9 represents data pooled from the 2 individual experiments (n=20).

[2] = test system: TNF-α; assay: TNF-α production by monocytes in co-culture TEER assay (Luminex); format: cell-based, human; details: pre-incubated 6 hours prior to HK E. coli; basolateral supernatant
Procedure: Production of the cytokines TNF-α, IL-23, and IL-10 by monocytes was measured in the tissue culture supernatant from the basolateral chamber of the co-culture TEER assay performed in Example 1B. Following TEER readings, the supernatants were centrifuged at 10,000 g for 5 minutes at 4° C. to remove cell debris. Luminex analysis was performed according to the manufacturer's instructions (Magpix instrument and xPonent software version 4.2; Luminex Corporation (Austin, TX)). Luminex analysis was performed to determine the […] concentration of TNF-α and IL-23 produced by monocytes. Luminex analysis utilizes a bead-based system for quantification of multiple cytokines from a single sample. Like an ELISA, Luminex beads are coated with a capture antibody, and incubation with samples allows the target to bind to the capture antibody. Beads are washed and incubated with a fluorescently labeled detection antibody for quantification of bound target. Cytometric analysis is used to differentiate bead populations, which are loaded with differential fluorescent dyes, and to quantify cytokine levels by measuring detection antibody signal. TNF-α, IL-23, and IL-10 production in untreated cells and cells pre-incubated with SG-15 for 6 hours prior to HK E. coli treatment was normalized to pg/ml concentrations elicited by HK E. coli only, which was set to 1.0. […] The graphs in FIGS. 2A, 2B and 2C each represent data pooled from an individual experiment (n=3).

[3] = test system: DSS treated mice; assay: DSS model of inflammatory bowel disease: 4KDa-FITC dextran translocation across the epithelial barrier; format: in vivo, C57BL/6 mice; details: 50 nmoles/kg i.p. b.i.d., 2.5% DSS 6 days; for 4KDa-FITC dextran in serum compared to DSS mice treated with vehicle: day 6
Procedure: Specifically, the mice in Example 1E were treated with dextran sodium sulfate (DSS), a chemical known to induce intestinal epithelial damage and thereby reduce intestinal barrier integrity and function. DSS mice are well-accepted models of colitis. In Example 1E, mice were treated with SG-15 protein approximately concurrent with (6 hours prior to) administration of DSS. The mice were then assessed for effects of SG-15 on clinically relevant markers of improved health. Eight-week old C57BL/6 mice were housed 5 animals were cage and given food and water ad libitum for 7 days. Following the 7-day acclimation period, treatments were initiated concurrently with addition of 2.5% DSS to the drinking water. […] The mice were treated with 2.5% dextran sodium sulfate (DSS) in their drinking water for 6 days. Treatments were continued with SG-15 or […]-GLP2 twice a day (b.i.d.) in the morning and evening (every 8 and 16 hr) with i.p. injections at 50 nmoles/kg. Fresh 2.5% DSS drinking water was prepared every 2 days. On day six, mice were fasted for four hours and then orally gavaged with 600 mg/kg 4 KDa dextran labeled with fluorescein isothiocyanate (FITC) [4KDa-FITC]. One hour after the 4KDa-FITC gavage mice were euthanized, blood was collected and FITC signal was measured in serum. […] Results are shown in FIG. 4, and are presented as mean±SEM. The graph in FIG. 4 represents data pooled from 2 individual experiments (n=20).

[4] = DSS+SG protein, 50 nmoles/kg i.p. b.i.d., unit not given

| Molecule | Colon weight to length ratio [1, 4] | TNF-α production normalized to HK E. coli only (set to 1.0) [2] | 4KDa-FITC dextran translocation compared to positive control Gly2-GLP2 [3] | 4KDa-FITC dextran in serum compared to DSS mice treated with vehicle [3] | Colon weight to length ratio, SG protein compared with Gly2-GLP2 ([1]; 50 nmoles/kg i.p. b.i.d.) | Colon weight to length ratio ([1]; DSS+SG-15, 50 nmoles/kg i.p. b.i.d.) [mg/mm] |
| --- | --- | --- | --- | --- | --- | --- |
| SG-18: 267 amino acid protein (SEQ ID NO:19) encoded by the genome of Clostridium bartlettii sp. nov. (protein, listed as Clostridium bartlettii) EVDSSKEQATSKDEKQVVVATSVAITEILDRLGVEVSGVPQTSYELPESAKGATEIGSPMNPDMEIIKSLNPTDVICVDTLGSDFEKQFEENNINADFYNLSNVDGLKETIAALGEKFNKQDKANEILDEIKEVENKVNSNKKSDDKILVLFGAPGSVMVATDKSYIGNLVELAGGNNIFSNATSSFTQINLEEIIKLNPDKILVMTHAVPEAAKKSVEEELSKDLWKNVNAVKNNDITYLENGYFGMSANLQIVEAVEKLGDILYE | 3.3 | 1.06 | even lower than the positive control | significant reduction in 4KDa-FITC dextran | – | – |
| SG-17: 327 amino acid protein (SEQ ID NO:13) encoded by the genome of Eubacterium eligens (protein, listed as Eubacterium eligens) CNSKIDVKYDYNVEDYVQLGQYENISVQVDKTSIENELIESKIKQDVEDNTTYTEVDRGAIASDQILVTYTATSSGASLSGLTNTDGKTMILGTDTLGLELDELDQALYGMTPGQTKILIVDIPEDYSSDLYKGTRVVFELTMQTVAQANVPMITNAYVKEAFGYDTVEEYRQSIKESLETDINSKVENKIQEDVLSSLQDTFKISSYPDSLMEETRSRLETSIGFYADFSNLSKDEYCQKQYGLSFDDFVKKSVVQQLIMEAIVKDRNMTMREYDYKGSLDDFAADNGYSNADTFVEKFGKDKIVKAMLVQKAQDYVIEHANISYK | 3.14 | 0.73 | – | not altered | – | – |
| SG-16: 119 amino acid protein (SEQ ID NO:9) encoded by the genome of Eubacterium eligens (protein, listed as Eubacterium eligens) MTGCSGSKEPDNKTSVDYTVVENADLPEELKKLIESKKDKVMRLTYTTKDYTYVVAGYGTRETSGYSIKVNDVYTGDNALYIDLNLIGPAAGEAVNEVETYPVIVLKMERREESVVFKM | 4.1 | 1.29 | – | significant reduction in 4KDa-FITC dextran | – | – |
| SG-15: 400 amino acid protein (SEQ ID NO:1) encoded by the genome of Eubacterium eligens (protein, listed as Eubacterium eligens) EYTEIRTASELVEAAKSASGNYKLMTDIDMTGVEWTPWDFSGTFDGNGHSILNLSVKTVSKKTMKTYDGNRKEYKTYGAGFFGVLTGAKVTGLDIYGARIEITTTEPCFAAPIAGLADDSDISDCIIKDTYVSLTDSAKMWGTGGIAGFGSGNLDNITTDVTLVCVDTDAAVRDEQFMGGAYAAGFLNIRNCSITIDGYDSDHGYVHDGGLVGMYMVYPLELSKTYQGEVLNNKVKGMITFFEDNTDRRAYCQANMGEVMNWTYAYSGFTSDFKRNETYDYSVTLLPEMCSNPSYTDVVTEATASDFGYTTHTCSTCGYTYSDTYTIHEHKVDSYSVVKEAASTDKKDGIEAGTCSLCNQTVYREYAANVVTDDNTQATDNKASGTAVKKGMKESTAVFA | – | 0.91 | – | significant reduction in 4KDa-FITC dextran | no difference | 3.5 |
